Test results from patent US20060148746, “Nucleic acid inhibitors of glutamate receptors” (published 2006).

Molecular target: GluR2Qflip AMPA receptor (homomeric channel) (UniProt P19491-2 P19491-2:22-883)
Test: inhibition; intrinsic KI, whole-cell current, competitive; pH 7.4, 22 C, -60 mV
Conditions: tags: expressed in HEK-293S cells (co-transfected with GFP and SV40 large T antigen); chain copies: 4
Experimental: Glutamate, a natural neurotransmitter, was used as the activating ligand, and the resulting receptor response in a single cell was recorded. Recording electrodes were made from glass capillary pipettes and fire polished. The electrode resistance was ˜3M Ω when filled with the electrode solution. The electrode solution contained 110 mM CsF, 30 mM CsCl, 4 mM MaCl, 0.5 mM CaCl₂, 5 mM EGTA, and 10 mM Hepes (pH 7.4 adjusted by CsOH). The external bath solution contained 150 mM NaCl, 3 mM KCl, 1 mM CaCl₂, 1 mM MgCl₂ and 10 mM Hepes (pH7.4 adjusted by NaOH). The GFP fluorescence in transfected cells was visualized using an Axiovert S100 microscope with a fluorescent detection system from Carl Zeiss (Thornwood, N.Y.). The whole-cell current was recorded using an Axonpatch-200B amplifier at a cutoff frequency of 2-20 kHz by a built-in eight-pole Bessel filter and digitized at 5-50 kHz sampling frequency using a Digidata 1322A from Axon Instruments (Union City, Calif.). The data acquisition software was pCLAMP 8, also from Axon Instruments.
The present invention relates to the discovery and characterization of a group of water-soluble AMPA receptor inhibitors, which are RNA aptamers that can fold into unique three-dimensional structures that confer high affinity and specificity against biological targets. […]

Sequence of GluR2Qflip AMPA receptor (homomeric channel) (P19491 other isoform, or with tags, fused parts or gaps): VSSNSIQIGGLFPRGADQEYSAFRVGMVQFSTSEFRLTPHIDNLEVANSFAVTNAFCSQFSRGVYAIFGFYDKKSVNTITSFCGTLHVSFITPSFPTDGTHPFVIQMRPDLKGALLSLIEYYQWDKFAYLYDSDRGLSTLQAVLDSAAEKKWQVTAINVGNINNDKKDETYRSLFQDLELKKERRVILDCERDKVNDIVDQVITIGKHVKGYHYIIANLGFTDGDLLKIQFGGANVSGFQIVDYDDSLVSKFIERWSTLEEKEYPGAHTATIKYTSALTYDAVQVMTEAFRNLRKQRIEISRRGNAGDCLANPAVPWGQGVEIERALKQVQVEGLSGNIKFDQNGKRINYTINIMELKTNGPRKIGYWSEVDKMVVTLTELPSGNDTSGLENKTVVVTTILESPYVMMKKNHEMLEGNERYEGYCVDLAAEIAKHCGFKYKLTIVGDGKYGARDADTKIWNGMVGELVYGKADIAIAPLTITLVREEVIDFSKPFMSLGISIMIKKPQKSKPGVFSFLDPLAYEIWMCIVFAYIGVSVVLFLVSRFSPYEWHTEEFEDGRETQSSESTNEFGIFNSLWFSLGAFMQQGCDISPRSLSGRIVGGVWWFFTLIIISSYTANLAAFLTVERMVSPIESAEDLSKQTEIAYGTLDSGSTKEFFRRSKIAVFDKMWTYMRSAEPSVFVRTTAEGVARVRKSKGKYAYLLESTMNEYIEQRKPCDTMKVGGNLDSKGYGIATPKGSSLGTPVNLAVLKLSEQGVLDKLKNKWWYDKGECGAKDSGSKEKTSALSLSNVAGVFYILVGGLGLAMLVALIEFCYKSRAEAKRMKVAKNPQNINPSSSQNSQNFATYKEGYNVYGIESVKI

B1: AN57 (57-nt minimal aptamer, M1+M2 mixture) (ssRNA)
RNA: GGGCGAAUUCACUGCCAUCUAGGCAGUAACCAGGAGUUAGUAGGACAAGUUUCGUCC
Ki: 133 nM
